Entries after “also recorded” stand apart in the source; their conditions may differ.
Legend:
Molm 13 cells = experiment: Cell surface calreticulin on staurosporine-treated Molm 13 cells, flow cytometry; assay type: cell-based, human; details: live cells, compared to isotype control
From the text: (§1) FIGS. 14A-14B. […] Live cells were stained with anti-calreticulin (CRT) antibody conjugated by a fluorophore. […] Live cells were stained with LRP1 cluster IV-Fc protein followed by a secondary anti-Fc antibody conjugated to a fluorophore.

[1] = target: T1, Calreticulin on the cell surface of Molm 13 cells (Homo sapiens, UniProt P27797); experiment: LRP1 cluster IV-Fc binding to staurosporine-treated Molm 13 cells, flow cytometry
T1 construct: endogenous in cells; host or cells: Molm 13 (human AML cell line), treated with staurosporine
T1 sequence (P27797 18-417): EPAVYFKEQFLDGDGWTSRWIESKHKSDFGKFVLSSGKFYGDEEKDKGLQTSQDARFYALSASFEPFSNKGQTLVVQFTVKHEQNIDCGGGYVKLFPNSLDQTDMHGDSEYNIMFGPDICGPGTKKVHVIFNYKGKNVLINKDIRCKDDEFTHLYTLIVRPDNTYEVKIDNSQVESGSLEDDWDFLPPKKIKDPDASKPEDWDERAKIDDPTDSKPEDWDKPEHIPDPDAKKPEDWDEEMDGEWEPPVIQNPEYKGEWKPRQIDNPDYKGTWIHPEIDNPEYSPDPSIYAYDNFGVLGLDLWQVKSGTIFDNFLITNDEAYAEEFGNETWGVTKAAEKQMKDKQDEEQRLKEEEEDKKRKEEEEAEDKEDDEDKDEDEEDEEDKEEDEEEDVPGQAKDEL
From the text: as §1

[2] = system: primary human cancer cells; experiment: In vitro phagocytosis assay, primary human cancer cells with human macrophages; assay type: cell-based; details: two hours; for phagocytosis of primary human cancer cells, agent alone: compared to IgG1 isotype control
Description: (§2) Given the known role of CRT as a pro-phagocytic signal, its correlation with CD47 expression (FIG. 2A), and its ability to be counteracted by CD47 (FIG. 2), we investigated whether the expression of cell surface CRT on cancer but not normal cells could explain the selective targeting of tumor cells by a blocking anti-CD47 antibody. In vitro phagocytosis assays were performed by incubating primary human normal cells or cancer cells with human macrophages in the presence of anti-CD47 antibody. CD47 was expressed on all normal and cancer cells profiled (FIG. 2A and FIG. 7, 9), but expression of calreticulin was primarily restricted to tumor cells (FIG. 1A,B). […] (FIG. 3C).
(§3) Generation of human macrophages and in vitro phagocytosis assays were performed as previously described. Primary human samples or cell lines were incubated with 10 μg/ml IgG1 isotype control (Ebiosciences), 10 μg/ml anti-CD47 antibody (clone B6H12.2, ATCC), 4 μg/ml calreticulin blocking peptide (MBL International Corporation), 10 μg/ml RAP (Fitzgerald Industries International), or 125 μg/ml recombinant CRT human protein (Thermo Scientific). Per MBL, confirmation of blocking activity was performed by Western blot analysis, verified by incubation of an anti-CRT antibody with 5 times higher concentration of the peptide and performing a Western blot analysis to determine if the specific band had been diminished. Cells were then analyzed by fluorescence microscopy to determine the phagocytic index (number of cells ingested per 100 macrophages).

[3] = system: primary human normal cells; experiment: In vitro phagocytosis assay, normal human tissue cells with human macrophages; assay type: cell-based; details: several normal human tissue types, vs IgG1 isotype control
Description: as §2
Generation of human macrophages and in vitro phagocytosis assays were performed as previously described. Primary human samples or cell lines were incubated with 10 μg/ml IgG1 isotype control (Ebiosciences), 10 μg/ml anti-CD47 antibody (clone B6H12.2, ATCC), 4 μg/ml calreticulin blocking peptide (MBL International Corporation), 10 μg/ml RAP (Fitzgerald Industries International), or 125 μg/ml recombinant CRT human protein (Thermo Scientific). […] Cells were then analyzed by fluorescence microscopy to determine the phagocytic index (number of cells ingested per 100 macrophages).

NBM cells = experiment: In vitro phagocytosis assay, human NBM cells with human macrophages; assay type: cell-based; details: vs vehicle or IgG1 isotype control
From the text: Next, the relationship between the level of tumor cell surface CRT expression and level of phagocytosis by anti-CD47 antibody was investigated. Cell surface CRT expression on tumor cells positively correlated with the degree of anti-CD47 antibody mediated phagocytosis, regardless of tumor cell type (FIG. 3D). Finally, given that normal cells express minimal levels of cell surface CRT, we investigated whether the addition of CRT to the surface of these cells could enable phagocytosis.
as §3

Q: `CN[C@@H]1C[C@H]2O[C@@](C)([C@@H]1OC)n1c3ccccc3c3c4c(c5c6ccccc6n2c5c31)C(=O)NC4` [staurosporine] was tested. Which cell surface calreticulin (Molm 13 cells) did it give?
A: Its cell surface calreticulin is “increase in cell surface calreticulin”.

Q: For “LRP1 cluster IV-Fc protein: LRP1 cluster IV fused to Fc, used to stain cell surface calreticulin”, which “binding to staurosporine-treated Molm 13 cells” value ([1]; live cells, secondary anti-Fc antibody, flow cytometry) is on record?
A: The value was “increase in the binding”.

Q: With “RAP: receptor-associated protein (RAP), an inhibitor of LRP (Fitzgerald Industries International)” as the molecule, how does the “anti-CD47 antibody-mediated phagocytosis of cancer cells” value ([2]; in the presence of anti-CD47 antibody) read?
A: The value was “completely abrogated in most cases; also recorded: completely abrogated anti-CD47 antibody-mediated phagocytosis”.

Q: And the “phagocytosis of primary human cancer cells, agent alone” value (“phagocytosis … agent alone” below) [2]?
A: The value was “did not enable phagocytosis”.

Q: And the “phagocytosis … agent alone” value ([2]; listed as LRP)?
A: Its value is “no effect on phagocytosis”.

Q: And the “blocking of LRP1 cluster IV-Fc protein binding” value ([1]; staurosporine-treated Molm 13 cells)?
A: The value was “can be blocked”.

B1: anti-CD47 antibody: blocking monoclonal anti-human CD47 antibody, clone B6H12.2, ATCC (antibody, V domains shown)
VH: EVQLVESGGDLVKPGGSLKLSCAASGFTFSGYGMSWVRQTPDKRLEWVATITSGGTYTYYPDSVKGRFTISRDNAKNTLYLQIDSLKSEDTAIYFCARSLAGNAMDYWGQGTSVTVSS
VL: DIVMTQSPATLSVTPGDRVSLSCRASQTISDYLHWYQQKSHESPRLLIKFASQSISGIPSRFSGSGSGSDFTLSINSVEPEDVGVYYCQNGHGFPRTFGGGTKLEIK
Q: Which “phagocytosis of normal human cells” value [3] does the source give for B1 here?
A: Its value is “not phagocytosed; also recorded: No difference in phagocytosis”.

Q: And the “phagocytosis … agent alone” value [2]?
A: The value was “robustly phagocytosed; also recorded: are phagocytosed; also recorded: enabled phagocytosis of cancer cells”.

Q: What about the “phagocytosis of NBM cells” value (NBM cells) of the same molecule?
A: Its value is “did not; also recorded: No difference in phagocytosis”.

B2: exogenous CRT: recombinant CRT human protein (Thermo Scientific), adsorbs onto the cellular surface and directly binds LRP (protein, UniProt P27797 18-417, looked up)
Calreticulin: EPAVYFKEQFLDGDGWTSRWIESKHKSDFGKFVLSSGKFYGDEEKDKGLQTSQDARFYALSASFEPFSNKGQTLVVQFTVKHEQNIDCGGGYVKLFPNSLDQTDMHGDSEYNIMFGPDICGPGTKKVHVIFNYKGKNVLINKDIRCKDDEFTHLYTLIVRPDNTYEVKIDNSQVESGSLEDDWDFLPPKKIKDPDASKPEDWDERAKIDDPTDSKPEDWDKPEHIPDPDAKKPEDWDEEMDGEWEPPVIQNPEYKGEWKPRQIDNPDYKGTWIHPEIDNPEYSPDPSIYAYDNFGVLGLDLWQVKSGTIFDNFLITNDEAYAEEFGNETWGVTKAAEKQMKDKQDEEQRLKEEEEDKKRKEEEEAEDKEDDEDKDEDEEDEEDKEEDEEEDVPGQAKDEL
Q: What does the source list for B2?
A: phagocytosis of NBM cells (NBM cells): enabled phagocytosis of NBM cells; also recorded: enabled increased phagocytosis; phagocytosis of NBM cells (NBM cells; listed as Exogenous CRT): enabled increased phagocytosis of NBM cells

Source: patent publication US10942185B2, “Therapeutic and diagnostic methods for manipulating phagocytosis through calreticulin and low density lipoprotein-related receptor” (The Board of Trustees of the Leland Stanford Junior …, priority 2010, dated 2021)
